The values that follow come from a protein production outcome set (Wang et al. 2014).

This data set is described as follows: label from the status in PepcDB records.
For the sequence “MTRSKKFIIMITTVIVIIAFIFLALFAWKIYAERNYNNTNIREAAQFNPLIRETDYYVQVSDPLKKNGKNQVGAYTYMTDGFDKDGVGHTVTFNGMKKLKKGAYLKVSLFLGEAKSYNEISKDKVPHKPLKKLEMQQLEHHHHHH”, the protein production entry is reported as “not failed”.

For “MTRSVWLKADSEVGDWETRKRRITAGIEAGVDWVLVDEEDVDRVSELGEINIAAFTNGDVHVMEAEAEDSEADATIVGKDGEGDGTVDLPSDFSGSADLSTLRQNGAAPDGGYVRIFDEDYEAFAEAVAAEADFTIVIGENWQIIPLENLIARVGEETDLIAGVRTAEDARTAYETLELGADGVLLDTDEVDEIRKTVEVRDEMGRESLDLEYAEVTAIEQTGSADRVCIDTGSLMEHDEGMLVGSMARGLFFVHAETAESPYVASRPFRVNAGAVHAYVRTPDGGTKYLSELQSGDEVQIVDANGRTREAIVGRAKIEKRPMFRVQAETEDSDRIETLLQNAETIKVHTQDGRTAVTDLEPGDEILIHHEDTATHFGERIEESIIEK”, the protein production entry is “failed”. In the case of “MTRTFDPIREMDRLLSDVTRTPATVAVPMDLYREGDDYTVAVDLPGVDPASIDIDVDDRTLTIRAERAAKVAKEAQWLSRERAMGTFARQLTLGHGLATDRITAEYTDGVLTLTIPVAETAKPRKVEVRHGSTTIDAMTDQAQVGSGEHQEQ” it was “failed”. “MTRTRVIAALVMAPVAMCSILFLPTAWLASLTAIIFLWGLWEWMKLSQVEDTLVRTVLLTLNLLLMVLLVWVSAHSLVLFQIATLIGIAWWILALLWLRFLGFCADPNQRTAKIVKVTAGTLAVIPAWSALVLLHSGDKPGSTFPESLHAHLWLLTAQIMIWAADSGAYFSGRLFGKHKLAPQISPNKTVEGLLGGILTGLAVAAGFGLLNGVTMAQFPSLLLVSFVAILASVIGDLFESLLKRHAGIKDSGSMIPGHGGVLDRIDSTLAALPVFALGKDIFGF”: the protein production entry is “failed”. As to “MTRTTAVGFDRVTKGYGDVRAVDGLTLALHPGETVALLGPNGAGKSTTLDLLLGLRRPDAGTVHVFGGEPREAVVAGRVGAMLQSGGLMDEVTVAELVRLGCALHPRAYPAADVLARAGLTKIADRRVDKLSGGQAQRVRFALATAGDSDLIVLDEPTTGMDVTARQAFWATMREQADQGRTVLFATHYLEEADAIADRVLVLHRGRLLADGTAAEIKARAGTRRISFDLDGGPDASPDASPDGSRNGTVDEATLRALPHLTALDVSGRTVRIQSADADATVYALYGLGLYPRNLEVAGLGLEQAFVALTAAEEAKQP”, the protein production entry is on record as “failed”. The result for “MTRVTTTGIPMNNVPSGRHHVSTSRNLFAWFLFALLLLSLYLSYQLVAPFLHTIILSSVFSASIYPFYRRLTSYLGERPVPAALLVLAGVVILVVIPVVVFVIGLIPQAVASVSAITRWLAGHGGLDGLNDAALAPYIAWVRENLPFIDPAQLDVRSSLVQASRAAGQTLLQWGTYVLGNTLLLFGHFLLLLLCMFFMLKDGAWMVQRVRYLSPLRIDQQDRIILELRRVGRSVLVGGLLVAVIQGLLGGVALAAVGIPALFWGTLMAFASLVPVVGTGLVWVPAVCYLLLTSQWESALFLSLWCGIVVVGADSILRPYFMRGGVGMPVFFIFLSILGGVKAFGMLGILDGPLILSFTVVMLSLYGDEYRDILDAGSLAHSRGAECEKGEASEEGPDGT” reads “failed”; that for “MTRYLALDAFRGITIALMILVNTPGTWSHVYAPLLHAEWDGATPTDLVFPFFLFIIGSAMFFSFKKSNFSASPEQFRKIIKRGFIMFFIGFMLNVIPFTVNAEDWRIMGILQRIGIAYTVAACLVLTLNRTGVFIASAVILLAYWALLLSMGEGALTIEGNIIRQLDLAVFGANHMYTMRGVAFEPEGLLSTIPAIVNMLLGFELTRYLTSIEDKRSSVIKLTLIGGLAVGFGALWGLVLPINKSLWTPSYVIYSTGFACLLLAAFIWLIDIMKQVKLAEPLLVYGTNPLFVYVLSFLVVTMYLNINVGDVSMYAWLYKQLSGVFTPKLASFIFAFSHVAFFWYVSLKLYQRKIFIKI”, “failed”. As to “MTSGTSVINDKVLQYETFISEVLRRDLQKVLEQRDAVYEKIAQYLQLKNTIQSIQESGSKELKTDVDLGCNFYVQAHVPDASRIYVAVGYGFFVEFTHAEALKFIEKKTNQLTEYTEVLTKDAAKIKANIRMVLEGLRELQGLKDLPEDRRREVF”, the protein production result is listed as “not failed”. With “MTSGVAPLPGIVSTLSAAAEAVSEALIALDADGGILVVNGAAERVFDRRRDDLIGRSLDVVFGGDFAEAMASNLSAKVDALPPAPGGGRLLRRPGLPPLALHAGFSVTGDHGRPLATIVIRDLSPRADSWLETEERLGGFAASMPGIIFQRVAHRDGSLSYPFLSSGVHAVLGYHPAEMSVALDGCLNAIHWADRESYLRRLRQSAQTLAICSEEFRAITREGAVKWLSGASQPRAMANGDILWDGVLVDVTERKRAELWLEMIMDRAADGIVTINEQGVIESANAAVGTFFGYADRGELIGRRVEILMAEADRRQHTRHMLRYRETGDGALIGAGPRELTGRRRDGTTFALELALSEVRTEGRRIFIAVIRDITQRKETEGALAATRARLQTIADNVPGLVFQRELTAEGVLRFLFVSNGVHEVLGITPEALLADGELFLGAMDPDVRAAFRETLRQSASRLEPMEEDIKLRGRDGEERWLRGWSRPSRREDGSVVWDGVTLDVTDRKRAEDKLTFLAYYDPLTGLGNRSLFIDRFDRARRFAESIQAWVAVLSIGLDRFGMVNATIGHTMGDKVLIAVTRRLQQSLEAGSIVCRAGGDRFLVLLTGLTDRADLREVVATIQDAFVPPIEVEGQQFDIGLTIGGALHPEDGREAETLIMHADAALHRAKGGGGAFQMFTPEMGARAAHLLTIQHKLRRGLERHEFVAYFQPQVDLRSGLITGCEALARWNSPEDGLVPPGKFIGVAEEYGLIDAICGQVLDDSCRWLSTWRARGLPQVPVAVNISGRQFQNARQLVAMVDQALRQSGVDPRLLELELTESSAMSDPENAIAVVNLLRERGVSCAIDDFGTGYSSLSVLKRFPIGKLKIDRSFVMDVTTDPNDAAIVQAIIAMAHALNLRVVAEGVETLDHLAFLREVHCDAVQGFLFARPLPGEDMALMLAGGPPQPNPR”, the protein production entry was “failed”. As for “MTSHTLTQGGRTTATIALLLAMLLWSSSFIAMKIALTGFDPMVMIFGRMAIASVIFIAVWRRNFSGVRYRAGDWKLLGFMTMCEPCLYFVFEAYALEYTSASQAGMIVAMMPLSVAVAARFVLKEHMARSAWAGFCLAIAGVVWLSLGGQVTENAPNPMLGNALEVCAMLTATGYVISAKRLSSTYPPLFITAVQSLAGFVFFLPVLALPGVTLPTSLPLTPTLAVLYLGVCITLGAYGLYNYGVSRLPAGQAASYINLIPVLTLIMGRVVLGDELSPSQYLASLLVLAGVVLSQRRAAA”, the protein production entry is “failed”. As for “MTSKSEWSNARRIVIILADVLLYNLSIILGFMVKFGREIPSFNFVAYEKSAIYISIFFIFLNLLLGAYIFYNRKISDIIFVTVIGQILMTLTIMIVTFAGRWFTFPRSVLGYSFIIGIIVLSLWRILVYYLYLKVSNERKVVLLGKENQVMRSIQNFMSDKNNKHKVTSVVVSNYYENLKKIIDEIDIVYISSNVDENEKVKLYQLIVKHKKKIFLDTSFENLIMLKPNMMNFEDESIIEVSNFEIQPEENFIKRLFDILVSVCLFVITSPLMLIAAILVKATSPGPVIYKQTRITLDQREFSILKFRTMSATAEAKSGPVLSTSNDSRVTTVGKYLRALRIDELPQLINVIRGDMSIVGPRPERPFFVDQFNQENPNYYLRHNVRAGITGYAQVYGKYASDYNSKLNFDLLYIKNYSLLLDMKILLQTIKILFDKVSSRGLDESEEREELTMDYCKENAIRIYR”, the protein production result is “failed”. Take “MTSLNVLVAVCMAYVILLFGVAFAADRLSSTGRTTWLRSPLVYTLSLSIYCTAWTFYGAVGYAARSGLEFVTIYLGPTLVMIGWWWGLRKLVRVGRSQRVTSIADLISSRYGKSNTLAVCVTLLAVIGVTPYIALQLQSITLSFDIFAEADPVSRPGEGSSAFWVACGLAVFAILFGTRNLDANERHHGVVTAVAIEAVVKLVALLAVGVFVVWGIAGGLGDTLARIDASEIGVWQVDHGRWATITFLAAAAFVCLPRMFQVMVVENDDERHLRTAAWAFPLYLMLMSLFVVPIAVVGLELMPEGANPDLFVLTIPLAEGQETLAMLSFLGGFSSATSMVIVAAMALSTMVSNHIVMPIWLNAQGSGASVSGDVRSVVLYARRVSIAVILALGYFYYRLSGGGAALASIGLIAFAGIAQILPALVGGLFWRGATRTGALVGLTVGFVLWLYTLLLPGMGAGVIAPQVMEHGLFGLSWLRPQALFGIAGMDPMVHSVMWSLSLNTAAFCIASLLSFPSPLERLQGAQFVNVFDHSAGPRGWTGSVAQSEDLMIMSQRIMGAREAQEFFQSEAMAQGSRAYLPEPTPAFLERLERELSGSVGAATAHAMIGQIVGGSSVSVEDLLAVADESAQLLEYSSRLEAKSAELSRTARKLREANEKLTQISLQKDAFLSQISHELRTPMTSIRAFSEILRDTDGLAPVDKTRYAAIIHDEALRLTRLLDDLLDLSVLENGQVTLNMGQGRLVDVLDRAMATALTGTDRPLRVRRHRGAERIVLRTDLDRLSQVFINLITNAQKYCDAADPELSVTVHDVGGRIVVDLIDNGSGIPRDARKMVFEKFARVGAEKAGGAGLGLAICREIMQRLGGDISYLSGQEGGAFRVSLPVGMEIAAQ”: the protein production entry is “failed”.

In the case of “MTSLPTPIIGLIVAVFVLVWLVLRTRVHALIAMLAAACIAGLLGGMGIDKTLSVITSGFGTTLGSIGLVIGLGVMMGRLLEVSGAAERIAWSFIKWLGKRREEWALAITGYIVSIPIFVDSAFVILYPVAKALAKSGKRSLLTLGVALAGGLAVTHHTVPPTPGPLGVAGIFNVDIGAMLLTGMALAVPCVIGIVFYAQWLDKRYPDFVPRTLNADEVNAALEQYNKEKEQKDLPSLTLSLLPIVVPIVLIFLKAICSTLATIEGWSGLATHPVVQAINFVGSPVIALAISVLLAVYTLVPRMDKHTTAERLEEGLQSAGIILLVTGAGGALGAILRDSGAGQQLAEQVANLPISPILIPFIVATLVRLIQGSGTVAMITAASISAPILAQIPGINMLLAAQAATMGSLFFGYFNDSLFWVVNRMMGVSDVKQQMVVWSVPTTIAWAIGGTGVALINLLFGSGGSWLDPLLPIVVLAAIMLWVRWQAQGIKDKLVVKD”, the protein production entry is recorded as “failed”. For the sequence “MTSLTQRSSGLVQRRTEASRNAADKERAAGGGAGSSEDDAQSRRDEQDDDDKGDSKETRLTLMEEVLLLGLKDREGYTSFWNDCISSGLRGCMLIELALRGRLQLEACGMRRKSLLTRKVICKSDAPTGDVLLDEALKHVKETQPPETVQNWIELLSGETWNPLKLHYQLRNVRERLAKNLVEKGVLTTEKQNFLLFDMTTHPLTNNNIKQRLIKKVQEAVLDKWVNDPHRMDRRLLALIYLAHASDVLENAFAPLLDEQYDLATKRVRQLLDLDPEVECLKANTNEVLWAVVAAFTK”, the protein production result was “failed”. In the case of “MTSPSPDQVIRQEILALSAYHVPPAKDMVKLDAMENPYRLPPFLCEEISRIAADTSINRYPDPHAAALKEVLSTTLSVPAGMEIMLGNGSDEIIQIIMLAAAKPEAKLLTIEPGFAMFKMIATFANMQYIGIPLKPDFSLDIDRMLAAIERHQPSVIFLAYPNNPSGNLFDTSALEKIIEISPGLVVIDEAYHPFAGKSFIGRLADYPNLLVMRTLSKLGLAGLRLGLLAGRPEWLSHLEKLRLPYNVNVITQLVATKIMQHYDVLQQQADAIRQTRTRLRTFLENLNGIEVFPSNANFILFRLDGASQIFRLLQQHGILVKNLDNSHPLLKNCLRVTVGTPEENDRFCNTLQDLIAGN” it was “failed”.
